Entries after “also recorded” stand apart in the source; their conditions may differ.
T1: CXCR1 (Homo sapiens, UniProt P25024)
T1 sequence (P25024 1-350): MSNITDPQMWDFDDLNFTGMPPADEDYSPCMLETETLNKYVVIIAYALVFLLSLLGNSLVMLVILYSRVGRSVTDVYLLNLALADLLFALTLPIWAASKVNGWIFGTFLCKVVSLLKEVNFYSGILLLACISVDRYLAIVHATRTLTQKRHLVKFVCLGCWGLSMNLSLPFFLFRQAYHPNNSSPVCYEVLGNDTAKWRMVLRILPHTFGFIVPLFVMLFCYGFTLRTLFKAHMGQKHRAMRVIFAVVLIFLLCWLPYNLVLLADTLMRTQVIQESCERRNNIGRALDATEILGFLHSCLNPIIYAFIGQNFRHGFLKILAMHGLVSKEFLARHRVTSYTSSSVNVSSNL


Experiments:
Assay type in all cases: cell-based
[1] = target: T1, CXCR1; experiment: CRE/β-galactosidase reporter gene selectivity screen, CXCR1; settings: up to 2.5, forskolin 3 μM, agonist at 50-80% Emax
Protocol: (§1) Data are shown as means±S.E.M. (n=2-3).
(§2) HEK293T cells were maintained at 37° C. in a humidified 5% CO2, 95% air atmosphere in Dulbecco's modified Eagle's medium (DMEM) containing 2 mM L-glutamine, 50 IU/ml penicillin, 50 μg/ml streptomycin, and 10% (v/v) fetal calf serum. Jurkat cells were cultured in a humidified 5% CO2, 95% air atmosphere in a 1:1 mixture of Dulbecco's modified Eagle's medium (DMEM) and Ham's F12 medium containing 2 mM L-glutamine, 50 IU/ml penicillin, 50 μg/ml streptomycin, and 10% (v/v) fetal calf serum. […] [^125 I]-Labelling— Radiolabeling of Nanobodies with ^125I was performed using the Iodo-gen method (Pierce, Rockford, Ill.) according to the manufacturer's protocol. ^125I-labeled Nanobodies was separated from free iodine (>99%) using a Sephadex G-25 gel filtration column (Amersham Biosciences, Piscataway, N.J.). […] Competition Binding Assays— Membranes from HEK293T cells transiently expressing CXCR3 or CXCR4 were prepared 48 h after transfection as follows. Cells were washed and scraped from the cell culture dishes with ice-cold PBS containing 1 mm EDTA. The scraped cells were pelleted at 1500×g for 10 min at 4° C. […] The total protein was determined using a Bradford assay (Bio-Rad). […] Plates were counted by liquid scintillation. […] The accumulated inositol phosphates were isolated by anion exchange chromatography and counted by liquid scintillation. […]

[2] = target: CXCR6 (Homo sapiens, UniProt O00574); experiment: CRE/β-galactosidase reporter gene selectivity screen, CXCR6; settings: up to 2.5, forskolin 3 μM, agonist at 50-80% Emax
Sequence of CXCR6 (O00574 whole entry, species assumed): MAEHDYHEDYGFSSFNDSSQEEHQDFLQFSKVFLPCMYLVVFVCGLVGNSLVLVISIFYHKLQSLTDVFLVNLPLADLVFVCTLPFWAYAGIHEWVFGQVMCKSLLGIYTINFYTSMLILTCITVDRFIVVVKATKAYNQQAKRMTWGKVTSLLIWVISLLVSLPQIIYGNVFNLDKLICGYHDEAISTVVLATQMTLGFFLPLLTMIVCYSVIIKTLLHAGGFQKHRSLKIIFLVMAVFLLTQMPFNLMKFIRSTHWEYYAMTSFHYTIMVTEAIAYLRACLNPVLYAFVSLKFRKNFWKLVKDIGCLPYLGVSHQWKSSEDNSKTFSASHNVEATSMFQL
Protocol: as §1, §2

[3] = target: histamine H4 receptors (Homo sapiens, UniProt Q9H3N8); experiment: CRE/β-galactosidase reporter gene selectivity screen, histamine H4 receptor; settings: up to 2.5, forskolin 3 μM, agonist at 50-80% Emax
Sequence of histamine H4 receptors (Q9H3N8 whole entry): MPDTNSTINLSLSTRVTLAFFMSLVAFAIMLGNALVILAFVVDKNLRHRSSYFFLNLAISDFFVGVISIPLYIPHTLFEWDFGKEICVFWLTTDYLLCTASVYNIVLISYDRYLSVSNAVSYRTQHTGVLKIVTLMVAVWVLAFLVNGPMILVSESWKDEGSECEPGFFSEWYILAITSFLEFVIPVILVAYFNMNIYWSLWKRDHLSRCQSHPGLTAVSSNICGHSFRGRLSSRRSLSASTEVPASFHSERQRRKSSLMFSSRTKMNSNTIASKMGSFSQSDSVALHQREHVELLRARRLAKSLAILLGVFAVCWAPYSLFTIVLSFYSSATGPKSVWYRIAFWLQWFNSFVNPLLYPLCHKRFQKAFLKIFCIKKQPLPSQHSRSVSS

[4] = tested on: Jurkat cells endogenously expressing CXCR4; experiment: Chemotaxis assay (ChemoTx plates) with Jurkat cells towards CXCL12
Protocol: HEK293T cells were maintained at 37° C. in a humidified 5% CO2, 95% air atmosphere in Dulbecco's modified Eagle's medium (DMEM) containing 2 mM L-glutamine, 50 IU/ml penicillin, 50 μg/ml streptomycin, and 10% (v/v) fetal calf serum. Jurkat cells were cultured in a humidified 5% CO2, 95% air atmosphere in a 1:1 mixture of Dulbecco's modified Eagle's medium (DMEM) and Ham's F12 medium containing 2 mM L-glutamine, 50 IU/ml penicillin, 50 μg/ml streptomycin, and 10% (v/v) fetal calf serum. […] [^125 I]-Labelling— Radiolabeling of Nanobodies with ^125I was performed using the Iodo-gen method (Pierce, Rockford, Ill.) according to the manufacturer's protocol. ^125I-labeled Nanobodies was separated from free iodine (>99%) using a Sephadex G-25 gel filtration column (Amersham Biosciences, Piscataway, N.J.). […] Competition Binding Assays— Membranes from HEK293T cells transiently expressing CXCR3 or CXCR4 were prepared 48 h after transfection as follows. Cells were washed and scraped from the cell culture dishes with ice-cold PBS containing 1 mm EDTA. The scraped cells were pelleted at 1500×g for 10 min at 4° C. The pellet was washed and then resuspended in ice-cold membrane buffer (15 mM Tris, pH 7.5, 1 mM EGTA, 0.3 mM EDTA, and 2 mM MgCl2). The cell suspension was homogenized by 10 strokes at 1200 rpm using a Teflon-glass homogenizer and rotor and further subjected to three freeze-thaw cycles using liquid nitrogen. Membranes were separated by centrifugation at 40,000 g for 25 min at 4° C. The membrane pellet was washed and resuspended in ice-cold Tris-sucrose buffer (20 mM Tris, pH 7.4, and 250 mM sucrose) and frozen in liquid nitrogen. The total protein was determined using a Bradford assay (Bio-Rad). Periplasmas (1:10) or ligands were pre-incubated with membranes in binding buffer (50 mM HEPES (pH 7.4), 1 mM CaCl2, 5 mM MgCl2, 100 mM NaCl, 0.5% bovine serum albumin) supplemented with 0.5% BSA for 1 h at 22° C. before the addition of [^125I]-CXCL12 (40 pM) or [^125I]-238D2 (3 nM) or [^125I]-238D4 (3 nM) for additional 2 h at 22° C. […] Membranes were then harvested over polyethylenimine (0.5%)-treated Whatman GF/C filter plates and washed three times with ice cold binding buffer containing 500 mM NaCl. Plates were counted by liquid scintillation. Inositol Phosphate Accumulation Assay— 24 hours post transfection with pcDNA3.1-CXCR4 and pcDNA1-HA-mG {alpha} qi5 (see Verzijl et al, 2008 supra), 250.000 cells were seeded into 24-wells plates and labelled overnight using inositol-free minimal essential medium supplemented with 1 μCi myo-[2-^3H]-inositol. The next day, the cells were washed once to remove not incorporated myo-[2-^3H]-inositol. […] In agonist experiments, the cells were directly stimulated with test compounds and LiCl (10 mM) in assay buffer for 2 h at 37° C. The stimulation was stopped by aspirating the stimulation medium and adding ice-cold 10 mM formic acid. The accumulated inositol phosphates were isolated by anion exchange chromatography and counted by liquid scintillation. CRE Reporter Gene Assay— HEK239T cells were transfected with pCRE/β-galactosidase (Chen W, Shields T S, Stork P J S, Cone R D (1995) Anal Biochem 226:349-354) and plasmids (pcDEF3 or pcDNA3.1) encoding the indicated receptors. 40,000 transfected cells per well were seeded into 96 well plates and grown in DMEM supplemented with 10% fetal calf serum. The medium was replaced 32 h after transfection by serum-free DMEM supplemented with 0.5% bovine serum albumin and ligands as indicated. Following 16 h of ligand incubation, the medium was removed, the cells were lysed in 100 μl of assay buffer (100 mM sodium phosphate buffer at pH 8.0, 4 mM 2-nitrophenol-β-D-pyranoside, 0.5% Triton X-100, 2 mM MgSO4, 0.1 mM MnCl2, and 40 mM β-mercaptoethanol) and incubated at room temperature. […]

[5] = Jurkat/0.3 nM CXCL12, monovalent Nanobodies, mean ± S.E.M.

| Molecule | effect on agonist-induced response at CXCR1 [1] | effect on agonist-induced response at CXCR6 [2] | effect on agonist-induced response at histamine H4 receptors [3] | Imax (%), Chemotaxis [4, 5] [%] | pKi or pIC50, Chemotaxis [4, 5] | inhibition of migration of Jurkat cells towards CXCL12 ([4]; 300 pM CXCL12) | induction of migration of Jurkat cells (agonism) ([4]; test compound in lower compartment) |
| --- | --- | --- | --- | --- | --- | --- | --- |
| 238D2: Nanobody (VHH) raised against human CXCR4, SEQ ID NO: 238 (protein, Nanobody, Nanobody constructs or fragments thereof) VHH: EVQLVESGGGLVQTGGSLRLSCAASGFTFSSYAMSWVRQAPGKGLEWVSGIKSSGDSTRYAGSVKGRFTISRDNAKNMLYLQMYSLKPEDTAVYYCAKSRVSRTGLYTYDNRGQGTQVTVSS | do not act as agonists or antagonists; also recorded: do not alter | do not act as agonists or antagonists; also recorded: do not alter | do not act as agonists or antagonists; also recorded: do not alter | 106 ± 2 | 8.33 ± 0.16 | – | – |
| 238D4: Nanobody (VHH) raised against human CXCR4, SEQ ID NO: 239 (protein, Nanobody, Nanobody constructs or fragments thereof) VHH: EVQLMESGGGLVQAGGSLRLSCAASGRTFNNYAMGWFRRAPGKEREFVAAITRSGVRSGVSAIYGDSVKDRFTISRDNAKNTLYLQMNSLKPEDTAVYTCAASAIGSGALRRFEYDYSGQGTQVTVSS | do not act as agonists or antagonists; also recorded: do not alter | do not act as agonists or antagonists; also recorded: do not alter | do not act as agonists or antagonists; also recorded: do not alter | 101 ± 4 | – | concentration-dependently inhibited | unable to induce any significant migration |
